Molecular target: HR2 peptide of the SARS-CoV-2 spike (H1159-K1211), His-SUMO removed (SARS-CoV-2) (UniProt P0DTC2)
Assay: crystal structure

HR2 peptide of the SARS-CoV-2 spike (H1159-K1211), His-SUMO removed (from UniProt P0DTC2 1159-1211) (domain or fragment)
stoichiometry N: 3
